Laboratory results taken from patent US5773574A, “Polypeptides for promoting cell attachment” (The Scripps Research Institute, priority 1991, dated 1998).
Residues, ends and D or L forms follow the SMILES beside them.

Tests used:
[1] = molecular target: GPIIb-IIIa (Homo sapiens (Human)) (UniProt P08514); assay: competition with 10 nM biotinylated Fn on GPIIb-IIIa-coated wells
[2] = molecular target: GPIIb-IIIa (Homo sapiens (Human)) (UniProt P08514); assay: 125I-labelled ligand on GPIIb-IIIa-coated wells; no inhibitor
[3] = molecular target: GPIIb-IIIa (Homo sapiens (Human)) (UniProt P08514); assay: 125I-labelled ligand on GPIIb-IIIa-coated wells; inhibitor Mab 16.12
[4] = molecular target: GPIIb-IIIa (Homo sapiens (Human)) (UniProt P08514); assay: 10 nM biotinylated Fn on GPIIb-IIIa-coated wells, avidin-HRP detection
[5] = molecular target: GPIIb-IIIa (Homo sapiens (Human)) (UniProt P08514); assay: 125I-labelled ligand on GPIIb-IIIa-coated wells; inhibitor 2 mM GDTA (so in the source)
GPIIb-IIIa [6] = molecular target: T1, GPIIb-IIIa (Homo sapiens, UniProt P05106+P08514); assay: Competition assay: biotinylated Fn binding to purified GPIIb-IIIa in presence of synthetic polypeptides; settings: 250 μM polypeptide, 10 nM biotinylated Fn; FIG. 9
T1 construct: GPIIb-IIIa from platelet lysates is purified by the following procedure; from tissue
Protocol: (SEQ ID NO 11) as shown by the line with closed squares. […] The competition assays were performed in microtiter wells of a 96-well plate as described in Example 9b(1). Briefly, microtiter wells coated with purified GPIIb-IIIa receptor were maintained with 10 nM biotinylated Fn for 2 hours at room temperature in the presence of varying concentrations of D-11-T and RGDS.
The competition assay was performed by first admixing into individual wells of a 96 well microtiter plate (Immunlon, Dynatech) 10 μg/ml of purified GPIIb-IIIa, prepared in Example 1, diluted in HEPES-saline buffer, pH 7.4, consisting of 10 mM HEPES, 150 mM NaCl, 1 mM CaCl2 and 1 mM MgCl2. […]
The Fn-peptide admixtures were maintained in GPIIb-IIIa-coated wells for 2 hours at room temperature to allow the biotinylated Fn to bind to the receptor. Following this maintenance period, the reacted wells were washed as described above and the amount of biotinylated Fn bound to GPIIb-IIIa was determined by admixing 0.1 ml avidin bound to biotinylated horseradish peroxidase H (Hrp) (Sigma, St. Louis, Mo.) at a 1:2000 dilution to form an avidin-biotinylated Fn admixture. […] After maintaining the color developing-reaction admixture for 10 minutes at 20° C., the reaction was stopped with the admixture of 2N H2 SO4, and the stopped reactions were measured for absorbance as described in Example 3a. […]

GPIIb-IIIa [7] = molecular target: T1, GPIIb-IIIa; assay: Interaction of 125I-labelled ligands with GPIIb-IIIa coated microtiter wells (Table 3); format: binding; settings: 125I-labelled ligand
Protocol: Incubate the GPIIb-IIIa with plate for 1 hour at room temperature, then dump unbound and block with 150 ul of 5% BSA in the same buffer for 1 hour at room temperature. Wash three times with 150 μl of Tyrode's buffer with 5 mM HEPES, 1 mM MgCl2 1 mg/ml dextrose, 1 mg/ml BSA. Add 50 μl of ^125 I fusion protein (125 mg/ml) at varied concentration (4×10^-7 to 1×10^-10 M). Incubate 4 hours to overnight at room temperature (with lead shield).
Carefully remove radioactive samples and wash 3 times with 150 μl Tyrodes with 5 mM HEPES, 1 mM MgCl2, 1 mg/ml dextrose, 1 mg/ml BSA. Count with a Gamma Counter and elute by boiling in SDS-PAGE loading Buffer.
To determine if the insert coded polypeptide containing fibronectin residues 1255-1456 bound GPIIb-IIIa, the capacity of microtiter wells coated with purified GPIIb-IIIa to bind the radiolabelled fusion-protein preparation was ascertained (Table 3). In addition, the radiolabelled material bound to the insolubilized GPIIb-IIIa was recovered and analyzed by SDS-PAGE followed by radioautography. […] The isolated protein products were a mixture of insert coded polypeptides containing fusion protein and maltose binding protein breakdown products. only those bands containing the insert-coded polypeptide bound to the insolubilized GPIIb-IIIa and that binding was inhibitable by either EDTA or the monoclonal antibody FnI-16.

Compound: polypeptide DRVPHSR
- percent inhibition of control binding at 200 µM polypeptide [1]: 35 to 40%

Compound: fibronectin (Fn), intact, isolated from fresh human citrated plasma (from UniProt P02751) (ligand)
- Counts ×10^-3 (counts ×10^-3) [2]: 42
- Counts ×10^-3 (counts ×10^-3) [3]: 12
- absorbance at 490 nm (absorbance at 490 nm) [4]: 2.7
- Counts ×10^-3 (counts ×10^-3) [5]: 8

Compound: CC[C@H](C)[C@H](NC(=O)[C@H](CO)NC(=O)[C@H](CC(N)=O)NC(=O)[C@H](CCCNC(=N)N)NC(=O)[C@H](CO)NC(=O)[C@H](Cc1c[nH]cn1)NC(=O)[C@@H]1CCCN1C(=O)[C@@H](NC(=O)[C@H](CCCNC(=N)N)NC(=O)[C@@H](N)CC(=O)O)C(C)C)C(=O)N[C@H](C(=O)O)[C@@H](C)O [D-11-T] (H-DRVPHSRNSIT-OH)
- inhibition of binding of biotinylated Fn to GPIIb-IIIa (GPIIb-IIIa [6]): greater than 80%

Compound: Fibronectin: intact Fn isolated from fresh human citrated plasma on gelatin-sepharose
- Counts ×10^-3 (GPIIb-IIIa [7]; inhibitor 2 mM EDTA): 8 Counts ×10^-3
- Counts ×10^-3 (GPIIb-IIIa [7]; inhibitor Mab 16.12): 12 Counts ×10^-3
- Counts ×10^-3 (GPIIb-IIIa [7]; no inhibitor): 42 Counts ×10^-3
